Source: US20220119534A1 (DRAGONFLY THERAPEUTICS, published 2022)
Values joined by “and” are separate entries in the source; they are usually repeats but may differ in a detail not shown here. Identical values can stand only once. Each block holds one binder with its values, some of them ahead of it.

Key:
[1] = target: T1, Human CLEC12A-His (human, UniProt Q5QGZ9 65-265); test: SPR; control sample (CST pH 7.0 study)
T1 construct: Recombinant soluble protein made in house; also called hCLEC12A-His; hCLEC12A; not shown: His tag
T1 sequence: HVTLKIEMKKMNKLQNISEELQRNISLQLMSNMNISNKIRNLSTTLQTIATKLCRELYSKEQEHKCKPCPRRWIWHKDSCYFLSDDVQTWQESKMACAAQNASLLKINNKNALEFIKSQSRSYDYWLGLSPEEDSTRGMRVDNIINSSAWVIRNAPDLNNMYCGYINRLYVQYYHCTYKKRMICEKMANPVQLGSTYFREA

[2] = target: T2, mFc-hNKG2D (human, UniProt P26718 73-216); test: SPR; control sample (CST pH 7.0 study)
T2 construct: extracellular domain; Recombinant mFc-tagged NKG2D dimer, made in house; also called human NKG2D; not shown: mouse Fc tag
T2 sequence (looked up): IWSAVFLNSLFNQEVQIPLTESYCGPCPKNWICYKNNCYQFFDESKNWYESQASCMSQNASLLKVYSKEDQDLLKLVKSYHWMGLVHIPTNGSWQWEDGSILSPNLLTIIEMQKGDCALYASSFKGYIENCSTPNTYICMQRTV

[3] = target: T3, Human CD16a V158 (human, UniProt P08637 17-208, biotinylated); test: SPR; control sample (CST pH 7.0 study)
T3 construct: Bought recombinant receptor; also called hCD16a (V158); hFcγRIIIa V158

[4] = target: T1, Human CLEC12A-His; test: SPR; control sample (forced oxidation study)
[5] = target: T2, mFc-hNKG2D; test: SPR; control sample (forced oxidation study)
[6] = target: T4, human CLEC12A on cells (HL60, PL21, Ba/F3-hCLEC12A) (human, UniProt Q5QGZ9 1-265); test: flow cytometry, 40 nM, MFI after 2 h 37 C relative to 2 h on ice, HL60 cells
T4 construct: Endogenous on the AML lines HL60 and PL21; brought into mouse Ba/F3 cells by retroviral transduction; The cell line stands under assay; also called CLL-1
T4 sequence: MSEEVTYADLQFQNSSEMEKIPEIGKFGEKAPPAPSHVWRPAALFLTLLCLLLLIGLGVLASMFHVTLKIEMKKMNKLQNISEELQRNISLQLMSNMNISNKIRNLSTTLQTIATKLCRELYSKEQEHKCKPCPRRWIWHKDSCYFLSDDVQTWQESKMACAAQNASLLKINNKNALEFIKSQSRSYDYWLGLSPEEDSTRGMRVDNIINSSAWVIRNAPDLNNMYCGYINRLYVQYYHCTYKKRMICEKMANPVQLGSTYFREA

[7] = target: T5, recombinant human CD16a V158 (human, UniProt P08637 17-208, biotinylated); test: SPR 25C, kinetic fit, average
T5 construct: also called FcγRIIIa V158; hCD16aV

[8] = target: T6, human CLEC12A expressed on cells (human, UniProt Q5QGZ9 1-265); test: flow cytometry, HL60
T6 construct: Transduced isogenic cells or endogenous expression on AML cells; also called RMA-hCLEC12A; Ba/F3-hCLEC12A
T6 sequence: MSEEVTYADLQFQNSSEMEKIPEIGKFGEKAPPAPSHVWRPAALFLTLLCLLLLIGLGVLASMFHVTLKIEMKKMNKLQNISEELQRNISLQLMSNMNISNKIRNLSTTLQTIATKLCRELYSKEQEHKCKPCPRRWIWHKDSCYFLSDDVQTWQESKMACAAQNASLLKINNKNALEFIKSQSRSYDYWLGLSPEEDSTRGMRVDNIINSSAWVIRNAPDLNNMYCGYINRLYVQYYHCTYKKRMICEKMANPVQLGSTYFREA

[9] = target: T7, recombinant cynomolgus FcRn (cynomolgus monkey, UniProt Q8SPV9 24-297; Q8SPW0 21-119); test: SPR 25C, pH 6.0, steady state; pH 6.0; second replicate
T7 construct: also called cFcRn; cyno FcRn

[10] = target: T7, recombinant cynomolgus FcRn; test: SPR 25C, pH 6.0, steady state; pH 6.0; third replicate
[11] = target: T8, recombinant human CD64 (human, UniProt P12314 16-288, biotinylated); test: SPR 25C, kinetic fit
T8 construct: also called hFcγRI; hCD64
T8 sequence (P12314 16-288 limits assumed): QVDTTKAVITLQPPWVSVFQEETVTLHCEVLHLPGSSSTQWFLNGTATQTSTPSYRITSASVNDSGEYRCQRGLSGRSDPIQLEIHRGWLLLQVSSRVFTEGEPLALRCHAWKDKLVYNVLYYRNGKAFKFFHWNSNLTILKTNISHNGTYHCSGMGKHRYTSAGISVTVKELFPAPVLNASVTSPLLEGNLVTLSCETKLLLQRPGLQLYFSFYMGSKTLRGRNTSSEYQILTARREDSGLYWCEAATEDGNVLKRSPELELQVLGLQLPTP

T3 sequence (P08637 17-208 F176V limits assumed): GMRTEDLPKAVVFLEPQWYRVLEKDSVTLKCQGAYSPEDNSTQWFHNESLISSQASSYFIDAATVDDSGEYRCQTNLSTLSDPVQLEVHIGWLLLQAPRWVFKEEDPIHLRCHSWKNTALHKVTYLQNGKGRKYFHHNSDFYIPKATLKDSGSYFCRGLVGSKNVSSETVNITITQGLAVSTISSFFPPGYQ
T5 sequence (P08637 17-208 F176V limits assumed): as above
T7 sequence (Q8SPV9 24-297 limits assumed, chain 1 of 2): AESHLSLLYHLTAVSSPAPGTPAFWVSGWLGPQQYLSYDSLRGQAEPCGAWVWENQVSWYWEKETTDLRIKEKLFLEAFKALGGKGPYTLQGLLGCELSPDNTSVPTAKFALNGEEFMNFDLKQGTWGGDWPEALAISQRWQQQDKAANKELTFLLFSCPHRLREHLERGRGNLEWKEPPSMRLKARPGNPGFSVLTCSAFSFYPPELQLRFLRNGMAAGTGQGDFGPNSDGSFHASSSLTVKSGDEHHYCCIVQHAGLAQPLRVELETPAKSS
T7 sequence (Q8SPW0 21-119 limits assumed, chain 2 of 2): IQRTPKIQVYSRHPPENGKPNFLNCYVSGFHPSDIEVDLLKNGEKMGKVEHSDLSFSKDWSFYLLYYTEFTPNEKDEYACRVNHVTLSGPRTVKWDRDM

Kd [1]: 1.81 nM
koff [1]: 0.0014 s⁻¹
kon [1]: 776000 M⁻¹ s⁻¹
Kd [2]: 588 nM
koff [2]: 0.122 s⁻¹
kon [2]: 208000 M⁻¹ s⁻¹
Kd [3]: 171 nM
koff [3]: 0.0199 s⁻¹
kon [3]: 117000 M⁻¹ s⁻¹
Kd [4]: 1.68 nM
koff [4]: 0.00129 s⁻¹
kon [4]: 771000 M⁻¹ s⁻¹
Kd [5]: 598 nM
koff [5]: 0.124 s⁻¹
kon [5]: 208000 M⁻¹ s⁻¹
percent surface retention [6]: 103%
B1: AB0192 TriNKET (other)
chain: EVQLVESGGGVVQPGGSLRLSCAASGFTFNAFGMHWVRQAPGKCLEWVAFISSGSTSIYYANTVKGRFTISRDNSKNTLYLQMNSLRAEDTAVYYCARDGYPTGGAMDYWGQGTSVTVSSGGGGSGGGGSGGGGSGGGGSDIQMTQSPSSLSASVGDRVTITCKASQDIYNYLSWFQQKPGKAPKPLIYRANILVSGVPSRFSGSGSGQDYTFTISSLQPEDIATYYCLQFDAFPFTFGCGTKLEIKGSDKTHTCPPCPAPELLGGPSVFLFPPKPKDTLMISRTPEVTCVVVDVSHEDPEVKFNWYVDGVEVHNAKTKPREEQYNSTYRVVSVLTVLHQDWLNGKEYKCKVSNKALPAPIEKTISKAKGQPREPRVYTLPPCRDELTKNQVSLTCLVKGFYPSDIAVEWESNGQPENNYKTTPPVLVSDGSFTLYSKLTVDKSRWQQGNVFSCSVMHEALHNHYTQKSLSLSPG
heavy: EVQLVESGGGLVKPGGSLRLSCAASGFTFSSYSMNWVRQAPGKGLEWVSSISSSSSYIYYADSVKGRFTISRDNAKNSLYLQMNSLRAEDTAVYYCARGAPIGAAAGWFDPWGQGTLVTVSSASTKGPSVFPLAPSSKSTSGGTAALGCLVKDYFPEPVTVSWNSGALTSGVHTFPAVLQSSGLYSLSSVVTVPSSSLGTQTYICNVNHKPSNTKVDKKVEPKSCDKTHTCPPCPAPELLGGPSVFLFPPKPKDTLMISRTPEVTCVVVDVSHEDPEVKFNWYVDGVEVHNAKTKPREEQYNSTYRVVSVLTVLHQDWLNGKEYKCKVSNKALPAPIEKTISKAKGQPREPQVCTLPPSRDELTENQVSLTCLVKGFYPSDIAVEWESNGQPENNYKTTPPVLDSDGSFFLYSWLTVDKSRWQQGNVFSCSVMHEALHNHYTQKSLSLSPG
light: DIQMTQSPSSVSASVGDRVTITCRASQGISSWLAWYQQKPGKAPKLLIYAASSLQSGVPSRFSGSGSGTDFTLTISSLQPEDFATYYCQQGVSFPRTFGGGTKVEIKRTVAAPSVFIFPPSDEQLKSGTASVVCLLNNFYPREAKVQWKVDNALQSGNSQESVTEQDSKDSTYSLSSTLTLSKADYEKHKVYACEVTHQGLSSPVTKSFNRGEC
notes: the condition stands under assay; also called AB0192 Lot AB0192-005

Kd [7]: 238 nM
koff [7]: 0.022 s⁻¹
kon [7]: 94000 M⁻¹ s⁻¹
EC50 [8]: 1.6 nM
Max binding MFI [8]: 924 MFI
Kd [9]: 1100 nM
Kd [10]: 1400 nM
Kd [11]: 5.2 nM and 5.3 nM
koff [11]: 0.00027 s⁻¹ and 0.00028 s⁻¹ and 0.00026 s⁻¹
kon [11]: 53000 M⁻¹ s⁻¹ and 52000 M⁻¹ s⁻¹ and 51000 M⁻¹ s⁻¹
B2: F3'-1602 TriNKET (other)
chain: QLQLQESGPGLVKPSETLSLTCTVSGFSLTNYGLHWIRQPPGKCLEWIGVIWSGGKTDYNPSLKSRVTISKDTSKNQFSLKLSSVQAADTAVYYCAKYDYDDSLDYWGQGTLVTVSSGGGGSGGGGSGGGGSGGGGSDIQMTQSPSSLSASVGDRVTITCHASQNINFWLSWYQQKPGKAPKLLIYEASNLHTGVPSRFSGSGSGTRFTLTISSLQPEDIATYYCQQSHSYPLTFGCGTKLEIKGSDKTHTCPPCPAPELLGGPSVFLFPPKPKDTLMISRTPEVTCVVVDVSHEDPEVKFNWYVDGVEVHNAKTKPREEQYNSTYRVVSVLTVLHQDWLNGKEYKCKVSNKALPAPIEKTISKAKGQPREPRVYTLPPCRDELTKNQVSLTCLVKGFYPSDIAVEWESNGQPENNYKTTPPVLVSDGSFTLYSKLTVDKSRWQQGNVFSCSVMHEALHNHYTQKSLSLSPG
heavy: EVQLVESGGGLVKPGGSLRLSCAASGFTFSSYSMNWVRQAPGKGLEWVSSISSSSSYIYYADSVKGRFTISRDNAKNSLYLQMNSLRAEDTAVYYCARGAPIGAAAGWFDPWGQGTLVTVSSASTKGPSVFPLAPSSKSTSGGTAALGCLVKDYFPEPVTVSWNSGALTSGVHTFPAVLQSSGLYSLSSVVTVPSSSLGTQTYICNVNHKPSNTKVDKKVEPKSCDKTHTCPPCPAPELLGGPSVFLFPPKPKDTLMISRTPEVTCVVVDVSHEDPEVKFNWYVDGVEVHNAKTKPREEQYNSTYRVVSVLTVLHQDWLNGKEYKCKVSNKALPAPIEKTISKAKGQPREPQVCTLPPSRDELTENQVSLTCLVKGFYPSDIAVEWESNGQPENNYKTTPPVLDSDGSFFLYSWLTVDKSRWQQGNVFSCSVMHEALHNHYTQKSLSLSPG
light: DIQMTQSPSSVSASVGDRVTITCRASQGISSWLAWYQQKPGKAPKLLIYAASSLQSGVPSRFSGSGSGTDFTLTISSLQPEDFATYYCQQGVSFPRTFGGGTKVEIKRTVAAPSVFIFPPSDEQLKSGTASVVCLLNNFYPREAKVQWKVDNALQSGNSQESVTEQDSKDSTYSLSSTLTLSKADYEKHKVYACEVTHQGLSSPVTKSFNRGEC
notes: CLEC12A scFv-Fc, NKG2D A49MI Fab-Fc, human IgG1 Fc; also called AB0237
